Each block holds one molecule with its values, some of them ahead of it.
Key:
harmonin supramodule = conditions: for protocadherin-15; ref Michel et al., 2020; cited from earlier work
Source text: These folded extensions modulate the affinity of associated PDZ domains for their partners and promote the formation of domain assembly. In harmonin, this extension folds as a hairpin followed by a short α-helix mediating the formation of a heterotopic supramodule between the first PDZ and the upstream Harmonin Homology Domain (HHD) and forming direct contacts with residues upstream of the partner’s PBM ([Yan et al., 2010]) (PDB e ...

[1] = target: T1, PDZD7 second PDZ domain with its C-terminal extension (PDZ2ext construct; G206 to G313) (mouse, UniProt E9Q9W7-1 206-313); test: other fluorescence titration; tryptophan fluorescence (excitation 295 nm) of PDZ2ext at 5 µM in Tris HCl pH 7.5 (50 mM) on progressive addition of ADGRV1pbm peptide; apparent Kd; conditions: both partners purified
T1 construct: also called PDZ2ext WT; source: E. coli BL21 DE3, purified (GSTrap, on-column TEV cleavage, SEC); not shown: GST, N-terminal, cleaved
T1 sequence (looked up): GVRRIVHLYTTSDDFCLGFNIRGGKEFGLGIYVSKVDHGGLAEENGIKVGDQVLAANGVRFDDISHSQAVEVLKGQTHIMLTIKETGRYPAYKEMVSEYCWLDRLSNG

[2] = target: T2, PDZD7 second PDZ domain (PDZ2 construct; G206 to G292) (mouse, UniProt E9Q9W7-1 206-292); test: MST; label-free; PDZ2 at 140 μM in MES pH6 (50 mM) mixed 1:1 with a serial dilution of ADGRV1pbm peptide; apparent Kd; conditions: both partners purified
T2 construct: PDZD7, mouse, long isoform (Uniprot E9Q9W7-1), residues 206-292; source: E. coli BL21 DE3, purified (GSTrap, on-column TEV cleavage, SEC); not shown: GST, N-terminal, cleaved
T2 sequence (looked up): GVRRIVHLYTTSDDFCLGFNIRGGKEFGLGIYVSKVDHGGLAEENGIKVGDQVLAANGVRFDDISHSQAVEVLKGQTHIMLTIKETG

[3] = target: T3, PDZD7 PDZ tandem (P1P2 construct; A81 to G313) (mouse); test: other fluorescence titration; tryptophan fluorescence (excitation 295 nm) of P1P2 at 2 µM in Phosphate Buffer pH 6.6 (50 mM) on progressive addition of ADGRV1pbm peptide or the cytoplasmic domain; apparent Kd
T3 sequence (E9Q9W7 81-313, looked up): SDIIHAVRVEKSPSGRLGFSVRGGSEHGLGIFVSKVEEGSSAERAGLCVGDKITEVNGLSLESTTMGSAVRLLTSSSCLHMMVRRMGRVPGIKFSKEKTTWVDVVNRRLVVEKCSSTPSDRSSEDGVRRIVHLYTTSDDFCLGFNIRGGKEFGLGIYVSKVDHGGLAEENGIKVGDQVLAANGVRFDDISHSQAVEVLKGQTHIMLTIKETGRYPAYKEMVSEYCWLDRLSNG

[4] = target: PDZD7 PDZ tandem P1P2 G103R (mouse); test: as above
[5] = target: PDZD7 PDZ1ext G103R (mouse); test: NMR titration; 1H-15N HSQC chemical shift perturbations of the labelled PDZ construct on addition of ADGRV1pbm peptide; Tris HCl pH 7.5 (50 mM), 25°C; apparent Kd, mean over at least 10 shifting peaks
[6] = target: T4, PDZD7 first PDZ domain with its C-terminal extension (PDZ1ext construct; A81 to E192) (mouse); test: as above
T4 sequence (E9Q9W7 81-192, looked up): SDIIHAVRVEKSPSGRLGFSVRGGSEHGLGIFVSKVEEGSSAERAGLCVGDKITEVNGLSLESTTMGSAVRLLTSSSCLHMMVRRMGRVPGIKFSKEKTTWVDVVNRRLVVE

[7] = target: T5, PDZD7 first PDZ domain (PDZ1 construct; A81 to G167) (mouse, Natural entry residue kept at 81: the paper prints A81 but the entry has Ser, so the Ala is probably a cloning junction or a misprint. The GST tag was removed by TEV; a short N-terminal scar is possib); test: as above; conditions: both partners purified
T5 chain: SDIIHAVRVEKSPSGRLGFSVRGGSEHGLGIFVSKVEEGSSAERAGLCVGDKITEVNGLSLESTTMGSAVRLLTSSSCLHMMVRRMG

[8] = target: PDZD7 N-terminus with PDZ1 and its extension (N-PDZ1ext construct; M1-E192) (mouse) (UniProt E9Q9W7); test: NMR titration; chemical shift perturbations of PDZ1ext or N-PDZ1ext with the whole ADGRV1 cytoplasmic domain or the PBM peptide; apparent Kd, mean over at least ten shifting peaks; buffer not given for these titrations
[9] = target: T4, PDZD7 first PDZ domain with its C-terminal extension (PDZ1ext construct; A81 to E192) (mouse); test: as above
PDZD7 N-PDZ1ext = target: T6, PDZD7 N-PDZ1ext (Mus musculus, UniProt E9Q9W7); test: NMR titration of N-PDZ1ext with ADGRV1 ligands; assay type: binding, murine
T6 construct: including the N-terminus of the protein (N-PDZ1ext construct; M1-E192); GST (followed by TEV site) (N, cleaved yes); made in house; host or cells: E. coli BL21 DE3
T6 sequence (E9Q9W7 1-192): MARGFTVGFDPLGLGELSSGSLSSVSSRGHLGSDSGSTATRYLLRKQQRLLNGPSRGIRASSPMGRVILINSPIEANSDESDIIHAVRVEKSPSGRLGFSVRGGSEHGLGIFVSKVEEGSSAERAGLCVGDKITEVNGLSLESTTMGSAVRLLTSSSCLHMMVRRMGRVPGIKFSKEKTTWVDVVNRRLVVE
Procedure: (§1) All experiments were recorded at 25°C on a Bruker 800 MHz spectrometer equipped with a triple resonance ^1H{^13C/^15N} cryoprobe. The ^1H, ^15 N and ^13C backbone resonances assignment of PDZ1ext was carried out using 3D HNCA, HNCACB, HNCO, HNCOCA experiments (Tris HCl buffer adjusted to pH 6). The 2D ^1H-^15N HSQC spectra used to compare PDZ1, PDZ1ext, PDZ2 and PDZ2ext were recorded in Tris HCl pH 7.5 (50 mM). The 2D ^1H-^15N HSQC spectra used to compare PDZ1ext, PDZ2ext and P1P2 were recorded in Phosphate Buffer pH 6.5 (50 mM). Titration experiments of PDZ1 (WT), PDZ1ext (WT) and PDZ1ext (G103R) against ADGRV1pbm peptide were performed in Tris HCl pH 7.5 (50 mM). Averaged Chemical Shifts Perturbations (CSP) were calculated as: Δδavg = ((Δδ(^1H))^2+(Δδ(^15N)*0.159)^2)^½. For the determination of dissociation constants (Kd) of each peptide/PDZ interaction, averaged CSP δavg was plotted as a function of the molar ratio (peptide/PDZ) for several peaks and fitted using nonlinear regression and assuming a simple complex formation model.
The P1P2 tandem of PDZD7 is preceded by 80 residues with no predicted secondary or tertiary structure, but which could contribute to the interaction with ADGRV1. […] We first aimed at identifying potential secondary structures in both PDZD7 N-terminal region and ADGRV1 cytoplasmic domain. To this end, we produced both an extended PDZ1ext construct, including the N-terminus of the protein (N-PDZ1ext construct; M1-E192) and the whole ADGRV1 cytoplasmic domain of 152 residues.
On the overlay of PDZ1ext and N-PDZ1ext HSQC spectra, there is no significant chemical shift changes on PDZ1ext due to the presence of the N-terminal region (CSPs <0.04 ppm). […] We used the entire cytoplasmic domain of ADGRV1 as partner of PDZD7 in NMR and fluorescence titrations experiments. […] Finally, we measured Kd values in the few micromolar range between the tandem P1P2 and the whole cytoplasmic domain and the last 13 residues of ADGRV1 by fluorescence experiments.

PDZD7 PDZ1ext (81-192) = target: T7, PDZD7 PDZ1ext (81-192) (Mus musculus, UniProt E9Q9W7); test: NMR titration of PDZ1ext with ADGRV1 ligands; assay type: binding, murine; conditions: NMR titration, 25°C; apparent Kd, SD over at least ten shifting peaks; ligand whole cytoplasmic domain; read-out: Kd (Cyto)
T7 construct: PDZ1 (81-167), PDZ1ext (81-192); GST (followed by TEV site) (N, cleaved yes); made in house; host or cells: E. coli BL21 DE3
T7 sequence (E9Q9W7 81-192): T4 sequence (E9Q9W7 81-192, looked up)
Procedure: as §1, with “For the determination of dissociation constants (Kd) of each peptide/PDZ interaction, averaged CSP δavg was plotted as a function of the molar ratio (peptide/PDZ) for several peaks and fitted using nonlinear regression and assuming a simple complex formation model.” left out
We monitored the interaction between PDZD7 constructs and a peptide (ADGRV1pbm) corresponding to the last 13 residues of ADGRV1, encompassing its PBM (sequence VELRRIPIADTHL-COOH; PBM underlined). We measured apparent Kd values of our constructs towards ADGRV1pbm using several biophysical methods (NMR, fluorescence, MicroScale Thermophoresis (MST)) (Table 1; Supplementary Figure S3–S5). […]

Molecule: protocadherin-15: partner of harmonin supramodule
increased affinity of harmonin supramodule vs isolated PDZ (harmonin supramodule): ~10 fold

B2: ADGRV1 whole cytoplasmic domain (domain or fragment)
chain: HNQTCCPMKASYTVEMNGHPGPSTAFFTPGSGIPPAGEINKSTQNLINAMEEVPSDWERSSFQQTSQASPDLKTSPQNGASFPSSGGYGPGSLIADEESQEFDDLIFALKTGAGLSVSDNESGQGSQEGGTLTDSQIVELRRIPIADTHL
Kd [8]: 241 µM
Kd [9]: 41 µM
Kd [3]: 8.1 µM

Results, then the molecule that gave them:

Kd [1]: 3.1 µM
Kd [2]: 313 µM
Kd [3]: 1.6 µM
Kd [4]: 1.9 µM
Kd [5]: 1190 µM
Kd [6]: 47 µM
Kd [7]: 1310 µM
B1: ADGRV1pbm peptide (last 13 residues of ADGRV1, with its PDZ binding motif) (peptide)
peptide: VELRRIPIADTHL
notes: ADGRV1, last 13 residues, free C-terminal carboxylate as printed (-COOH); The other ADGRV1 constructs are murine

Kd (PDZD7 N-PDZ1ext; NMR titration, 25°C, SD over at least ten shifting peaks, ligand whole cytoplasmic domain, read-out: Kd (Cyto)): 241 ± 115 µM
decrease in affinity (PDZD7 N-PDZ1ext; due to the long unfolded N-terminus region, N-PDZ1ext vs PDZ1ext): 6 fold
Kd (PDZD7 PDZ1ext (81-192)): 41 ± 14 µM
B3: ADGRV1 whole cytoplasmic domain: whole ADGRV1 cytoplasmic domain of 152 residues, murine long isoform (CCDS36737; 6149-6298) (protein)
chain: B2 chain
modifications: left off: Histidine tag, N-terminal, cleaved

Reference: publication PMC9274004, “Deciphering the Molecular Interaction Between the Adhesion G Protein-Coupled Receptor ADGRV1 and its PDZ-Containing Regulator PDZD7” (Frontiers in Molecular Biosciences, 2022)
